In publication PMC9352680, “A comprehensive thermodynamic model for RNA binding by the Saccharomyces cerevisiae Pumilio protein PUF4”:

target: T1, PUF4 RNA-binding domain (Saccharomyces cerevisiae, UniProt P25339 537-888); assay: Mg; RNA-MaP; 20 mM Na-HEPES pH 7.4, 30 mM KOAc, 0.75 mM MgCl2, 0.1% Tween-20, 5% glycerol, 0.1 mg/mL BSA, 2 mM DTT; 25 C; 0.0125-409.6 nM protein; details: tags: N-His6-TEV cleaved; C-SNAP kept, Cy3B-labelled; label: tethered on chip by stalled RNA polymerase
T1 sequence: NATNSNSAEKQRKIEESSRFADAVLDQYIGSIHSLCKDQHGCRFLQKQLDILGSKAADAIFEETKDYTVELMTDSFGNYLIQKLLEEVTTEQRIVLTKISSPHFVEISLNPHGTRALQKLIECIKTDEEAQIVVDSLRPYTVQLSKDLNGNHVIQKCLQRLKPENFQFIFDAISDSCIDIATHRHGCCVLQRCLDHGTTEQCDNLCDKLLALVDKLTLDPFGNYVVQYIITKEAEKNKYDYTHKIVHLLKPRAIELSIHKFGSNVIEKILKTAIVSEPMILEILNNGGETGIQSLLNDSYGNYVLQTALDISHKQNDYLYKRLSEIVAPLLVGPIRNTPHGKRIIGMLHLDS

| Binder | Kd |
| --- | --- |
| UCUCUUGGUAUAUAUCUCUU (ssRNA) [Ia_S1_P3E.1_K3.1_C3.1_H3.1_[T1G]_A3.1_F3.1_T3.1] | 2290 nM |
| ACAAACCCUUAUAUAUAUAACAAAC (ssRNA) [Id_iii_S3_P3E.6_K3.2_C3.3_[T-3C]_H3.2_A3.1_F3.1_T3.2] | 446 nM |
| Ic_S2_P3E.1_K3.1_C3.1_H3.1_A3.1_F3.1_[A8G]_T3.1 (ssRNA) RNA: UUUGAUUAAUAUGAUAUCGUUCUUUCUUGUAUAUGUUCUUUCUCGAUAUCAUAUUAAUCUUU | 11.7 nM |
| UCUCUUUGUAACAUUAUCUCUU (ssRNA) [Ib_S1_P5E.1_K5.1_C5.1_H5.1_A5.1_[T5A]_[T6C]_F5.1_T5.1] | 4.31 nM |
| Id_iii_S2_P5E.9_K5.5_C5.3_H5.1_A5.2_F5.2_T5.2_[A12G] (ssRNA) RNA: UUUGAUUAAUAUGAUAUCGUUCUUUCUUCUUGUAAUAAAAUGUUCUUUCUCGAUAUCAUAUUAAUCUUU | 189 nM |
| Id_iii_S2_P5E.9_K5.5_C5.3_H5.1_A5.2_F5.2_T5.2_[A12T] (ssRNA) RNA: UUUGAUUAAUAUGAUAUCGUUCUUUCUUCUUGUAAUAAAAUUUUCUUUCUCGAUAUCAUAUUAAUCUUU | 158 nM |
| Id_iii_S2_P5E.9_K5.5_C5.3_H5.1_A5.2_F5.2_T5.2_[A12C] (ssRNA) RNA: UUUGAUUAAUAUGAUAUCGUUCUUUCUUCUUGUAAUAAAAUCUUCUUUCUCGAUAUCAUAUUAAUCUUU | 146 nM |
| Id_iii_S2_P5E.7_K5.3_C5.3_[T-1A]_H5.3_A5.1_F5.1_T5.2 (ssRNA) RNA: UUUGAUUAAUAUGAUAUCGUUCUUUCUUCAACACUUAUUAUAUUCUUUCUCGAUAUCAUAUUAAUCUUU | 823 nM |
| Id_iii_S2_P5E.7_K5.3_C5.3_H5.3_A5.1_F5.1_T5.2_[A12C] (ssRNA) RNA: UUUGAUUAAUAUGAUAUCGUUCUUUCUUCUACACUUAUUAUCUUCUUUCUCGAUAUCAUAUUAAUCUUU | > 2300 nM |
| Id_iii_S2_P5E.8_K5.4_C5.3_[C-2G]_H5.1_A5.2_F5.1_T5.2 (ssRNA) RNA: UUUGAUUAAUAUGAUAUCGUUCUUUCUUGUUGUAAUAUUAUAUUCUUUCUCGAUAUCAUAUUAAUCUUU | 15.4 nM |
| Id_iii_S2_P5E.8_K5.4_C5.3_H5.1_A5.2_F5.1_T5.2_[A12T] (ssRNA) RNA: UUUGAUUAAUAUGAUAUCGUUCUUUCUUCUUGUAAUAUUAUUUUCUUUCUCGAUAUCAUAUUAAUCUUU | 2.65 nM |
| Id_iii_S2_P5E.7_K5.3_C5.3_H5.3_A5.1_F5.1_T5.2_[A12T] (ssRNA) RNA: UUUGAUUAAUAUGAUAUCGUUCUUUCUUCUACACUUAUUAUUUUCUUUCUCGAUAUCAUAUUAAUCUUU | 2160 nM |
| Id_iii_S2_P5E.8_K5.4_C5.3_H5.1_A5.2_F5.1_T5.2_[A12G] (ssRNA) RNA: UUUGAUUAAUAUGAUAUCGUUCUUUCUUCUUGUAAUAUUAUGUUCUUUCUCGAUAUCAUAUUAAUCUUU | 6.61 nM |
| Id_iii_S2_P5E.7_K5.3_C5.3_H5.3_A5.1_F5.1_T5.2_[T11C] (ssRNA) RNA: UUUGAUUAAUAUGAUAUCGUUCUUUCUUCUACACUUAUUACAUUCUUUCUCGAUAUCAUAUUAAUCUUU | 1770 nM |
| Id_iii_S2_P5E.8_K5.4_C5.3_[C-2A]_H5.1_A5.2_F5.1_T5.2 (ssRNA) RNA: UUUGAUUAAUAUGAUAUCGUUCUUUCUUAUUGUAAUAUUAUAUUCUUUCUCGAUAUCAUAUUAAUCUUU | 40.3 nM |
| Id_iii_S2_P5E.8_K5.4_C5.3_[C-2T]_H5.1_A5.2_F5.1_T5.2 (ssRNA) RNA: UUUGAUUAAUAUGAUAUCGUUCUUUCUUUUUGUAAUAUUAUAUUCUUUCUCGAUAUCAUAUUAAUCUUU | 8.91 nM |
| Id_iii_S2_P5E.8_K5.4_C5.3_[T-3C]_H5.1_A5.2_F5.1_T5.2 (ssRNA) RNA: UUUGAUUAAUAUGAUAUCGUUCUUUCUCCUUGUAAUAUUAUAUUCUUUCUCGAUAUCAUAUUAAUCUUU | 5.82 nM |
| Id_iii_S2_P5E.8_K5.4_C5.3_[T-3A]_H5.1_A5.2_F5.1_T5.2 (ssRNA) RNA: UUUGAUUAAUAUGAUAUCGUUCUUUCUACUUGUAAUAUUAUAUUCUUUCUCGAUAUCAUAUUAAUCUUU | 8.09 nM |
| Id_iii_S2_P5E.8_K5.4_C5.3_H5.1_A5.2_F5.1_T5.2_[A12C] (ssRNA) RNA: UUUGAUUAAUAUGAUAUCGUUCUUUCUUCUUGUAAUAUUAUCUUCUUUCUCGAUAUCAUAUUAAUCUUU | 3.6 nM |
| UCUCUUUGUAAAAUUAUCUCUU (ssRNA) [Ib_S1_P5E.1_K5.1_C5.1_H5.1_A5.1_[T5A]_[T6A]_F5.1_T5.1] | 10.6 nM |
